Source: article PMC314469, “Protein Interaction Networks by Proteome Peptide Scanning” (PLoS Biology, 2004)

Legend:
[1] = molecular target: T1, amphyphisin SH3 (AMPH_HUMAN), P49418; test: SPOT array
T1 chain: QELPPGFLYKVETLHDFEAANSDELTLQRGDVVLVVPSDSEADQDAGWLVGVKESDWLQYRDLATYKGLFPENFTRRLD

[2] = molecular target: endophilin SH3 (SH3G2_HUMAN), Q99962; test: SPOT array

RGQEFRRPSTLSEL [P13674 520-533]
normalised SPOT signal, Boehringer light units (BLU); mean over the file's lines of this peptide [1]: 38.7 | normalised SPOT signal, Boehringer light units (BLU); mean over the file's lines of this peptide [2]: 158

RGAQLRRPRHSHPT [Q16360 129-142]
normalised SPOT signal, Boehringer light units (BLU); mean over the file's lines of this peptide [1]: 53.3 | normalised SPOT signal, Boehringer light units (BLU); mean over the file's lines of this peptide [2]: 40.1

RGAQLRRPRHSHLT [Q13399 123-136]
normalised SPOT signal, Boehringer light units (BLU); mean over the file's lines of this peptide [1]: 25.3 | normalised SPOT signal, Boehringer light units (BLU); mean over the file's lines of this peptide [2]: 53.2

RGIQFKRPHTVAPW [O43561 47-60]
normalised SPOT signal, Boehringer light units (BLU); mean over the file's lines of this peptide [1]: 35.2 | normalised SPOT signal, Boehringer light units (BLU); mean over the file's lines of this peptide [2]: 28.6

RGERLPRPDKSPSE [P29597 1130-1143]
normalised SPOT signal, Boehringer light units (BLU); mean over the file's lines of this peptide [1]: 3.2 | normalised SPOT signal, Boehringer light units (BLU); mean over the file's lines of this peptide [2]: 116

RHLSPRRPVSPGKD [P31629 1496-1509]
normalised SPOT signal, Boehringer light units (BLU); mean over the file's lines of this peptide [1]: 60.1 | normalised SPOT signal, Boehringer light units (BLU); mean over the file's lines of this peptide [2]: 332

RHPKPLKPPWHLSM [P41215 45-59]
normalised SPOT signal, Boehringer light units (BLU); mean over the file's lines of this peptide [1]: 76.6 | normalised SPOT signal, Boehringer light units (BLU); mean over the file's lines of this peptide [2]: 3220

RHLILKRPGFQEHE [Q96JB4 119-132]
normalised SPOT signal, Boehringer light units (BLU); mean over the file's lines of this peptide [1]: 67.7 | normalised SPOT signal, Boehringer light units (BLU); mean over the file's lines of this peptide [2]: 128

RGGPPSKPPAPEDE [P48634 419-433]
normalised SPOT signal, Boehringer light units (BLU); mean over the file's lines of this peptide [1]: 38.6 | normalised SPOT signal, Boehringer light units (BLU); mean over the file's lines of this peptide [2]: 33.5

ATPLPRRPQPRQFF
normalised SPOT signal, Boehringer light units (BLU); mean over the file's lines of this peptide [1]: 151 | normalised SPOT signal, Boehringer light units (BLU); mean over the file's lines of this peptide [2]: 19900

RHLAPNRPSKSRTD [Q9NTH0 93-106]
normalised SPOT signal, Boehringer light units (BLU); mean over the file's lines of this peptide [1]: 530 | normalised SPOT signal, Boehringer light units (BLU); mean over the file's lines of this peptide [2]: 257

RHPRPRRPGGPALR [Q9H7T3 112-125]
normalised SPOT signal, Boehringer light units (BLU); mean over the file's lines of this peptide [1]: 92.1 | normalised SPOT signal, Boehringer light units (BLU); mean over the file's lines of this peptide [2]: 266

ATPLPRRPQPRDLG
normalised SPOT signal, Boehringer light units (BLU); mean over the file's lines of this peptide [1]: 132 | normalised SPOT signal, Boehringer light units (BLU); mean over the file's lines of this peptide [2]: 6070

RGGPPPRPPPRQSL [Q9HCU4 2874-2888]
normalised SPOT signal, Boehringer light units (BLU); mean over the file's lines of this peptide [1]: 17900 | normalised SPOT signal, Boehringer light units (BLU); mean over the file's lines of this peptide [2]: 17200

RGFLPYRPPRPAFF [Q96RT6 725-739]
normalised SPOT signal, Boehringer light units (BLU); mean over the file's lines of this peptide [1]: 7280 | normalised SPOT signal, Boehringer light units (BLU); mean over the file's lines of this peptide [2]: 13700

RGDDLRRPATMKGK [Q96T37 35-48]
normalised SPOT signal, Boehringer light units (BLU); mean over the file's lines of this peptide [1]: 30 | normalised SPOT signal, Boehringer light units (BLU); mean over the file's lines of this peptide [2]: 144

RHASPARPPAARSQ [Q96JG1 528-542]
normalised SPOT signal, Boehringer light units (BLU); mean over the file's lines of this peptide [1]: 434 | normalised SPOT signal, Boehringer light units (BLU); mean over the file's lines of this peptide [2]: 4680
